Among the data in patent US20250243265A1 are polyubiquitin linkages recovered in the IP and limit of detection in western blot values, retold here.

Assay [1] deals with endogenous K63 polyubiquitin linkages in 293T cell lysates (human) (UniProt P0CG48). The assay is described as follows: IP in 7 M urea from LUBAC over-expressing 293T lysate (input 5075), mass spec AQUA.
The target of assay [2] is endogenous K48 polyubiquitin linkages in 293T cell lysates (human) (UniProt P0CG48). In words: IP in 7 M urea from LUBAC over-expressing 293T lysate (input 12420), mass spec AQUA.
Assay [3] addresses K63-linked diubiquitin (Boston Biochem) (Homo sapiens (Human)) (UniProt P0CG48). In words: western blot, 1 µg/mL IgG, two-fold dilutions of K63-linked diubiquitin. Background: In western blotting, separated proteins are transferred to a membrane and probed.

With “isotype control IgG (unrelated human kappa IgG1 antibody)”, the polyubiquitin linkages recovered in the IP in assay [1] came out at 0 pmol; in assay [2] it was 1 pmol. With Apu3.A8 anti-K63 IgG (antibody), in assay [3], the limit of detection in western blot amounted to 62 ng.
